# According to the domain aggregation screens of Martell et al. (2025):
# Assay: soluble fraction after stress (log2 fold change); higher = more stays soluble; pooled small domains, quantitative proteomics
# Settings: stress: 50 degC
# In short: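 Quantitative proteomics served as the high-throughput read-out for pooled custom libraries of small protein domains. Each was stressed at 50°C. Aggregation propensity is expressed as the base-two log fold change in soluble protein after stress. A higher value means a larger share of the protein remains in solution.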
row,Sequence,soluble fraction (log2)
1,HMNDNTAINEFKKMVFTRMVHLQIDNAELSKLSGVTNSKILALKYGNSNTLKLGDIVKVAKTLNINLNDL,-2.7
2,HMDAEEISILLEKAVLQLPEKQKMIFQLKYFEDLSYKDIQIITGGSIGGLKANYHHAVTKIEKLLS,-0.0727
3,HMNPLHYKAAHWVREGLFDDLKSFVELETRINSIFEEKDRGDVFEIFIEGYRSFSKWRALVLRLA,-0.28
4,HMAMNITQRHQEILAVIKQEKHITVSEISKLLGVSEVTIRKDFNYLEEKNLIYRHHGGASLNN,-1.58
5,HMGPSLDAVREQIRDLIAEEDKSAPYSDLSLVAELEKRGIHISRRTIAKYRGEMGIPNSDQRRYF,0.0495
6,HMNFDLDSFKQRMTLDGLYFGNEKQDVIALNNLSERYQLTWFDVYQLAKETSSNHKILPKRILVKLQQ,-1.07
7,HMDAMLSEQLREKRGELLIEVDAIAGNALRWATLSAEQQDAWAVYRQALLDVPQQAGFPNDVVWPINPN,-0.352
8,HMHRGTPASIIAAAKQYLTGGQTVELYEREGGPWTFRLRTYLSETPYPEKVRASVEALKPAGVVFLYELQS,-0.207
9,HMNDMWADITINANGKATLVVHTHEIKYLGLTGHLGKMEINGTAKEPVKDSSGDVVDYYFTFTDLDASMF,0.0763
10,HMLDGFEVGMTVMKKSGTEIGFTGWPSFADKDELPIIERIDTSDSTLLLKFKDMSWWIKASLVEPS,-1.62
11,HMALRFMAYGRINGTNVHFRTGASASTASLGRYSRGTEFGVYDKIGGWYRVRLLSTGQEGYVYSRYLTLTG,-2.67
12,HMTKSTSMDLGGFMIVEGSETVRLGGQILQKDVDYTIDYFSGKINFISEEALNPGAEISVSYEENQ,-0.187
13,HMSTMLPFVMRELVELVMKKKALPLGDALYYIYSSKLYKSLLDKSTKLWYSSTLSLYETLEKEKTEEKRRY,-1.79
14,HMLGARSLNEAVARNLPQILAKYQLIHIAGKNGFNPELQGRGYVQYEYVDTELKDLMALADIVVSR,-1.33
15,HMTSQVTVHVVGAVEKPGVVTLDAPSRVQDALEAAGGALPEAELSGVNLARELFDGEQIVVPAQGEDV,-0.0113
16,HMDNMTEMQKAVTALIEKSGGSIDNLSVIYDHLKKKYPSFDLKDYGYSRFSSFLRSMENIMVRGNAVTLRS,0.0337
17,HMQQKNWIVRDGDGKIYGPFTTEQVLVQIDRGYFVGGEEVALYPGGRWIAISGAPEFYDRLLDALAMEG,-0.402
18,HMPSNVKIPDVTGKTVAQARSAIEAAGLKVGKEKDEYSDSAKKDSVIRTNPQAGTQRREGSTVDLIVS,0.122
19,HMLIIMNSDATKEQVDHVTSRVREAGFKDHIMPGAGKVAIGVTGTGDYDQTKLHLEILPGVFKIMRITK,0.0895
20,HMRYFDDEELNNKFLEFLSMRKKIRKPVRTDRALKALLKKLHELSGGDVGLMKQIIDQSLDKEWLGLFEL,-0.422
21,HMGARHPLPYPFARAHGLLLEADGERSTLWASTNVSPAALSEVMRKYAVDVIEEEPPETLSQRIAAAYAA,0.0215
22,HMINLDGIGEKISRLRKEQGVTIRELSEYTGYSVGFLSNLETGKNSPTVESLQRVAEALRTDIIEILTK,-0.312
23,HMYSKVSFTVSVGMTSERVSASLKALGIIDDSAKFNRYLVSNGYSTRIKVGTVELQAGQSYAEIASKLV,-0.826
24,HMQVTDTGTIEGEIDKVLAANPDRVTEYHDGKEKILGWFVGQVMQTTKGKANPQMVNQLFLEKLK,0.142
25,HMNLGAHVYWRNHRAYGDFREYEDVGGGREALALPGSTWGTKDPRVAQALFAARLTEFQEARVGR,-1.05

row,Sequence,soluble fraction (log2)
1,HMGGEAEVLQSIDEGREVEVRSVAADGSAEVIYRGARWRARAAVGSLAAGRWTIGRVDGTELVLEK,-0.0207
2,HMGPNPLTEREQEILQLARTGEPVARLAKRLFLSPGTVRNHLSSAIGKLGAANRVEAAQFATERGW,0.0816
3,HMPKDMAKRASILTAASKLFVQHGYGGVSMDQIAAEAGVSKLTVYSHYGDKDSLFAAAVQAH,-0.328
4,HMPGMLVVYVTGAVRQPGRMVTLAAGSRVSDAIDAAGGLADDADAQALNLSARLNDGDLVHVPSALD,0.0161
5,HMSKDQKKFFIEIVSIRGFGSQIGISILNKLSIPQIINAIKTQNKKEISSIPGIGQKMTERLILELNNKFK,-0.0747
6,HMHTADDFKQLAKQTSNGQLRTRYLALYLFKNGETRTQIATYLGVARGSVNTWVSNYLAHGLEGLQSKP,-2.65
7,HMDALIWYVSRGQQKFGPFNYFGVLKALQDKSVFEFDYVWKEGTENWVRLAEHELFSQEKVRELLA,-0.203
8,HMSRYQDIANDIEKDIIEKKYTRKLPEQFELAQKYQTSRVTIVHALKILQNKKLIRTVKGHGTFITS,-1.4
9,HMLNDKLQTLFSLFPAVDKDLKKKGVTRQILWEQYKRNHPDGVGRSQFNYYYAQWKDQVNPT,-1.47
10,HMSVKLMEVKGASTVVSRQVREAVSIVFPTSSMRLDLVALKARIEGVDAVKRADVYLRNGILEIQIDER,-1.99
11,HMSDFKDIILKLRNEQGFTQEKLADVLGTSKSTVGMWEMGVRFPSKELYEAIADYFNVDIDYLYGRTDIR,-0.966
12,HMAMPQPVARALHRLGQDISAARRMRRLSQEDLAQRIGTSLSTVRRMEDGYPGTALHTFLRALHML,-0.261
13,HMDSKYLRIFSTLIDEMEKMSPGEQLQSERELSQRFQVSPMTVRRALHKLSTEGYTSAIPGKGTFVRK,-0.307
14,HMVVKLTQEQDRFIKTFNDKSLAFYYISSWGWGSFLRNGIGGVYEGDKTPFTLDEKEKMLNAIINGYEVI,-1.82
15,HMEILTRQLTHYLHLLPPAQQEVVRGVYLQDQTLQEIADRVQIPLGTVKSRLRLGLSKLREQIEQEHE,-0.916
16,HMRIEYYDDEELDRYIGTPASGYREAAVEEFREILLTLDADDVPGWVRSLQLRGIEFPESLRPELYL,-0.575
17,HMIDNFFTIRFNYSKINEVIRLLKEFNGEIFNKNYDKNEYIIEFSIPKKDAALLISKLKNITGLTIEQ,-0.00473
18,HMGHLTWTVTGIGHERRARTVAEQMSSVFGVLEARASSAGTVYLEFEREKIDEGGLEASLKRMGVTRVV,-1.71
19,HMNPSPYLRRHLSGDWGDLDEDDRRSNDAALASGEARLLSSYQVDPDLKLWIITEWDRSVTTLLLPSE,-0.0802
20,HMERPSLDQVLAHAKALGIAPARFVAYADGRWGTGWRLSPHGRARAWEELDRHRNDPLGYRDKLDVALQSG,-0.0254
21,HMTNQEFNAAFKPFLDYFPTTEMTKEKINIYYLALSDLSKEQLGSAFISMVKNRVYKNFPQVAEIRQYATN,-0.0953
22,HMQSVKTQPLRDWLLAHFDKPYPDDEDKVRLAEASGMTRAQVGNWFINARVRTWRPMVLDLGEEIERESV,-0.649
23,HMTSAIAEGTVIRLTQSTNIRESMSEDAPKVATAFSGEKVTVIMSYAEGWTKVTYGDKTGYIKTELL,-0.184
24,HMGAPAISYSKFLEQVDRKNVASVTIYKDGRIDGVMTSGSRFATESPSDPGLVGDLLKAGVEIRAKPP,0.126
25,HMRVTEIDYGAFMKMIEEKNIGEVKVEDYEIVFTDKDNKNIYKTGIMDDPDLTQRLYNSGAVFA,0.0247

row,Sequence,soluble fraction (log2)
1,HMKKLTNKQIIFFAEKLAHHSDFASKYSKVGESYEEFAIRLEKELNTPQKVEFYSSYLEKVGFK,-2.14
2,HMVNHEERKRLIAEATWRTISHVGIEQASVRTIAKEAGLSLGALRYYFTTQEELLRFSMQLVQERV,-0.0983
3,HMDVLNPGDKAVTTASWLNFRTGPGMQNKVASVLARNTTVNIIEKSNEWYKVSLANGSTGYVHGMYLSKIT,-0.0937
4,HMNMVEESVKKSSQWAVFEPNTISTWVKIQAMIENYLYQKWKEGALAGAKPEHAFFVKVGLGETM,0.163
5,HMNTGIPHQEVIKKLYSFAEGGDWKGLKEELNRIKEYTLFYNSVKELADSFEINRLIEKLKTYIF,0.0146
6,HMQTTVHLSPEEMVIMNALKQESPIDLPILRAQVEMSNKLWDTSMKNLSKLGQLKVEKIGEQVSVSLI,-0.257
7,HMNGTGSVYKLSGKRRNPWRAVVTNGWAYNEEKGKLVQNRVTIGYYHTRDEAIQAIANYNSSP,-1.52
8,HMDPLGHVIKKKRLQLGMTLRDLAAKAGVHHATIDRIETDQFKVVDPSTLVKIAEALHLDQLYLLSLN,-0.0139
9,HMFQLSNEAKQQVLGELKRYESKQSAVLPALYIGQKDNKGHITPEVIRELSKVMDIPESQINEVFTFYTM,-0.119
10,HMEIMELPEYVVRSGSGLDAFREKWDLWDQGLMYDLKDKRAVFPIFIDGVMIDAVGRALAGAEPKWLRYTG,-0.165
11,HMTKDEFLTTLRTLIQDMPPEDRRDVMNYYTEYFEDAGPEREQEVLRQLGSPEQVAREVLGG,-0.0225
12,HMTPQNAAAVLRYLSSGAIKGVGPSTAQRIVEKFGAESLDIIQNKPEELATIRGISLSKALAVSEEYNKQY,-0.202
13,HMHRIKRRNDTLVSALDSIAGIGAKRKKALLQHFGSVRAIKAVSAEEIAKVEGISPTLANQIFEAL,-0.605
14,HMTTVTVGSKVRVKAGATFSDGAKPFAEVYNTVYDVQLLSHNGKEARIGIGDQWTGWIYISDLYLANQPAP,-0.102
15,HMDESLIEEAKAMILQMKIEGSVRVRSNGLLEFRNPLFGSVYGRSVEELQEKLNKKVREQKSRI,-0.0459
16,HMDDGARQLVDQLNRLIANPAVSARIIHGYLILEGRVESEWEKTRTLLLAQVAGLPVIDLITVS,-1.85
17,HMSEYVIVTGEKVNLRVGPGMDYEIAGQVVKGDKLELLASEGDWSKVKTGSGSIYYISSSLVQKA,-0.238
18,HMEPTIGTATVTSGSRLNMRSAKSTSASVVTRIPSGATVGVISYASDWSKVTYNGYTGYVSSPYISMNG,-0.198
19,HMLSDAAAMESIAYEAIRQMEPDTYYIIGAGTTTRGIMEVLGLKNTLIGVDLIRNKELVANDLGGKELLSY,0.0353
20,HMSVLNLQTDIPKKYTDVLGTSVKGRLNTLVHNVIINSVDRPVIQMSEEVHEAMQGLRIFMFENVYRNPV,0.0658
21,HMNTPHLTPREREVLKGIVDGLINKEIAARMGVSVATVITHRNNLTEKLGTRSVSALTIFAVMHGIVR,-2.49
22,HMQISDAGALLDAVRRVLAENPAQVEQFRAGKEKVMGFLVGQVMRATGGKANPQMLNDVLREELS,-0.0404
23,HMSKIVPVAYSQFLKDVKNGNVSQVEIRGNNIKGINNNGSSFSTYAPNDLSLIDKLEKSNVEIIVMPLE,-0.125
24,HMESKKKTYTVKSGDTLVSILKREGVPQELIFKDYLGLFLELNPQISDINKLRVGQEIVLPVPG,0.0119
25,HMAVSGRGSIIGGVATVLDDFADSGKVWLEGEAWQARSSVPLKQDQEVVVRAMDGLVLVVEPVA,-0.198
